{
  "source": "paper PMC8531451",
  "about": "“1,1'-Carbonyldiimidazole-copper nanoflower enhanced collapsible laser scribed graphene engraved microgap capacitive aptasensor for the detection of milk allergen”",
  "binders": {"B1": {"name": "beta-lactoglobulin aptamer with 3' A tail, annealed to biotinylated T20 oligolinker (mixed)", "DNA 1": "ATACCAGCTTATTCAATTCGACGATCGGACCGCAGTACCCACCCACCAGCCCCAACATCATGCCCATCCGTGTGTGAGATAGTAAGTGCAATCTAAAAAAAAAAAAAAAAAAAAAAAA", "DNA 2": "TTTTTTTTTTTTTTTTTTTT", "modifications": "5' biotin (5Biosg) on oligolinker S1"}},
  "target": "T1, beta-lactoglobulin (bovine, UniProt P02754 17-178)",
  "T1 sequence": "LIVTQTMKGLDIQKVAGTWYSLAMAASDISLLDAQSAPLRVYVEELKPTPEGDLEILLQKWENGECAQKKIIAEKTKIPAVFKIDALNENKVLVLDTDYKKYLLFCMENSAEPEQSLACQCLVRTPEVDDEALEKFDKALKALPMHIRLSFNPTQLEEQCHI",
  "assay": "non-faradaic capacitive aptasensor; CDI-Cu nanoflower/LSG microgap; linear 1 ag/ml-100 fg/ml, LOD 1 ag/ml; Sensor: 10 mM PBS pH 7.4, target incubated 10 min; aptamer folded in 1 mM MgCl2, 10 mM PBS (90 °C 5 min); ELASA: coating at 4 °C overnight, 2% BSA block, PBS washes",
  "conditions": "protein: commercial; chain copies: 2; label: biotin; 3' A tail of aptamer paired with T20 oligolinker; aptamer part single-stranded",
  "data": [
    {"binder": "B1", "values": [
      {"measurement": "binding result", "result": "binds"}
    ]}
  ]
}
